The chains are these.
B1: TcdA^1102–1847 (intermediate domain of toxin A) (domain or fragment)
chain: SAGIPSLVNNELILHDKATSVVNYFNHLSESKKYGPLKTEDDKILVPIDDLVISEIDFNNNSIKLGTCNILAMEGGSGHTVTGNIDHFFSSPSISSHIPSLSIYSAIGIETENLDFSKKIMMLPNAPSRVFWWETGAVPGLRSLENDGTRLLDSIRDLYPGKFYWRFYAFFDYAITTLKPVYEDTNIKIKLDKDTRNFIMPTITTNEIRNKLSYSFDGAGGTYSLLLSSYPISTNINLSKDDLWIFNIDNEVREISIENGTIKKGKLIKDVLSKIDINKNKLIIGNQTIDFSGDIDNKDRYIFLTCELDDKISLIIEINLVAKSYSLLLSGDKNYLISNLSNTIEKINTLGLDSKNIAYNYTDESNNKYFGAISKTSQKSIIHYKKDSKNILEFYNDSTLEFNSKDFIAEDINVFMKDDINTITGKYYVDNNTDKSIDFSISLVSKNQVKVNGLYLNESVYSSYLDFVKNSDGHHNTSNFMNLFLDNISFWKLFGFENINFVIDKYFTLVGKTNLGYVEFICDNNKNIDIYFGEWKTSSSKSTIFSGNGRNVVVEPIYNPDTGEDISTSLDFSYEPLYGIDRYINKVLIAPDLYTSLININTNYYSNEYYPEIIVLNPNTFHKKVNINLDSSSFEYKWSTEGSDFILVRYLEESNKKILQKIRIKGILSNTQSFNKMSIDFKDIKKLSLGYIMSNFKSFNSENELDRDHLGFKIIDNKTYYYDEDSKLVKGLININNSLFYFDPIE
B2: TcdA^1–1874-EGFP (domain or fragment)
chain: MSLISKEELIKLAYSIRPRENEYKTILTNLDEYNKLTTNNNENKYLQLKKLNESIDVFMNKYKTSSRNRALSNLKKDILKEVILIKNSNTSPVEKNLHFVWIGGEVSDIALEYIKQWADINAEYNIKLWYDSEAFLVNTLKKAIVESSTTEALQLLEEEIQNPQFDNMKFYKKRMEFIYDRQKRFINYYKSQINKPTVPTIDDIIKSHLVSEYNRDETVLESYRTNSLRKINSNHGIDIRANSLFTEQELLNIYSQELLNRGNLAAASDIVRLLALKNFGGVYLDVDMLPGIHSDLFKTISRPSSIGLDRWEMIKLEAIMKYKKYINNYTSENFDKLDQQLKDNFKLIIESKSEKSEIFSKLENLNVSDLEIKIAFALGSVINQALISKQGSYLTNLVIEQVKNRYQFLNQHLNPAIESDNNFTDTTKIFHDSLFNSATAENSMFLTKIAPYLQVGFMPEARSTISLSGPGAYASAYYDFINLQENTIEKTLKASDLIEFKFPENNLSQLTEQEINSLWSFDQASAKYQFEKYVRDYTGGSLSEDNGVDFNKNTALDKNYLLNNKIPSNNVEEAGSKNYVHYIIQLQGDDISYEATCNLFSKNPKNSIIIQRNMNESAKSYFLSDDGESILELNKYRIPERLKNKEKVKVTFIGHGKDEFNTSEFARLSVDSLSNEISSFLDTIKLDISPKNVEVNLLGCNMFSYDFNVEETYPGKLLLSIMDKITSTLPDVNKNSITIGANQYEVRINSEGRKELLAHSGKWINKEEAIMSDLSSKEYIFFDSIDNKLKAKSKNIPGLASISEDIKTLLLDASVSPDTKFILNNLKLNIESSIGDYIYYEKLEPVKNIIHNSIDDLIDEFNLLENVSDELYELKKLNNLDEKYLISFEDISKNNSTYSVRFINKSNGESVYVETEKEIFSKYSEHITKEISTIKNSIITDVNGNLLDNIQLDHTSQVNTLNAAFFIQSLIDYSSNKDVLNDLSTSVKVQLYAQLFSTGLNTIYDSIQLVNLISNAVNDTINVLPTITEGIPIVSTILDGINLGAAIKELLDEHDPLLKKELEAKVGVLAINMSLSIAATVASIVGIGAEVTIFLLPIAGISAGIPSLVNNELILHDKATSVVNYFNHLSESKKYGPLKTEDDKILVPIDDLVISEIDFNNNSIKLGTCNILAMEGGSGHTVTGNIDHFFSSPSISSHIPSLSIYSAIGIETENLDFSKKIMMLPNAPSRVFWWETGAVPGLRSLENDGTRLLDSIRDLYPGKFYWRFYAFFDYAITTLKPVYEDTNIKIKLDKDTRNFIMPTITTNEIRNKLSYSFDGAGGTYSLLLSSYPISTNINLSKDDLWIFNIDNEVREISIENGTIKKGKLIKDVLSKIDINKNKLIIGNQTIDFSGDIDNKDRYIFLTCELDDKISLIIEINLVAKSYSLLLSGDKNYLISNLSNTIEKINTLGLDSKNIAYNYTDESNNKYFGAISKTSQKSIIHYKKDSKNILEFYNDSTLEFNSKDFIAEDINVFMKDDINTITGKYYVDNNTDKSIDFSISLVSKNQVKVNGLYLNESVYSSYLDFVKNSDGHHNTSNFMNLFLDNISFWKLFGFENINFVIDKYFTLVGKTNLGYVEFICDNNKNIDIYFGEWKTSSSKSTIFSGNGRNVVVEPIYNPDTGEDISTSLDFSYEPLYGIDRYINKVLIAPDLYTSLININTNYYSNEYYPEIIVLNPNTFHKKVNINLDSSSFEYKWSTEGSDFILVRYLEESNKKILQKIRIKGILSNTQSFNKMSIDFKDIKKLSLGYIMSNFKSFNSENELDRDHLGFKIIDNKTYYYDEDSKLVKGLININNSLFYFDPIEFNLVTGWQTINGKKYYFDINTGAALTS
B3: isolated TcdA CROPs (TcdA^1875–2710) (domain or fragment)
chain: YKIINGKHFYFNNDGVMQLGVFKGPDGFEYFAPANTQNNNIEGQAIVYQSKFLTLNGKKYYFDNNSKAVTGWRIINNEKYYFNPNNAIAAVGLQVIDNNKYYFNPDTAIISKGWQTVNGSRYYFDTDTAIAFNGYKTIDGKHFYFDSDCVVKIGVFSTSNGFEYFAPANTYNNNIEGQAIVYQSKFLTLNGKKYYFDNNSKAVTGLQTIDSKKYYFNTNTAEAATGWQTIDGKKYYFNTNTAEAATGWQTIDGKKYYFNTNTAIASTGYTIINGKHFYFNTDGIMQIGVFKGPNGFEYFAPANTDANNIEGQAILYQNEFLTLNGKKYYFGSDSKAVTGWRIINNKKYYFNPNNAIAAIHLCTINNDKYYFSYDGILQNGYITIERNNFYFDANNESKMVTGVFKGPNGFEYFAPANTHNNNIEGQAIVYQNKFLTLNGKKYYFDNDSKAVTGWQTIDGKKYYFNLNTAEAATGWQTIDGKKYYFNLNTAEAATGWQTIDGKKYYFNTNTFIASTGYTSINGKHFYFNTDGIMQIGVFKGPNGFEYFAPANTDANNIEGQAILYQNKFLTLNGKKYYFGSDSKAVTGLRTIDGKKYYFNTNTAVAVTGWQTINGKKYYFNTNTSIASTGYTIISGKHFYFNTDGIMQIGVFKGPDGFEYFAPANTDANNIEGQAIRYQNRFLYLHDNIYYFGNNSKAATGWVTIDGNRYYFEPNTAMGANGYKTIDNKNFYFRNGLPQIGVFKGSNGFEYFAPANTDANNIEGQAIRYQNRFLHLLGKIYYFGNNSKAVTGWQTINGKVYYFMPDTAMAAAGGLFEIDGVIYFFGVDGVKAPGIYG

What all share (conditions): both partners purified
In test [1] the target is GST-fused TcdA CROPs (combined repetitive oligopeptides of Clostridium difficile toxin A) (Clostridium difficile (strain VPI 10463), UniProt P16154 1875-2710). The experiment in a line: pull-down.
For test [2], the target named is recombinant Rac1 (UniProt P63000 1-192). The test can be described thus: MST.
The target of test [3] is B2. The experiment in a line: MST.

Consider B1, for which, in test [1], the binding result is recorded as “binds”. In the case of B2, in test [2], the Kd (in general, the concentration at which binding is half-saturated) was found to be 3.32 ± 0.36 µM. In the case of B3, the Kd in test [3] came out at 1.44 ± 0.07 µM.
